According to patent publication US20200231656A1 (UNIVERSIT T HEIDELBERG, published 2020):
Where “and” joins values, the source holds several entries; their conditions need not be identical. Identical values can stand only once.

What was measured:
[1] = biological target: T1, norovirus GII.10 VLPs (full-length capsid protein VP1, virus-like particles) (norovirus GII.10 (Vietnam026))
T1 chain: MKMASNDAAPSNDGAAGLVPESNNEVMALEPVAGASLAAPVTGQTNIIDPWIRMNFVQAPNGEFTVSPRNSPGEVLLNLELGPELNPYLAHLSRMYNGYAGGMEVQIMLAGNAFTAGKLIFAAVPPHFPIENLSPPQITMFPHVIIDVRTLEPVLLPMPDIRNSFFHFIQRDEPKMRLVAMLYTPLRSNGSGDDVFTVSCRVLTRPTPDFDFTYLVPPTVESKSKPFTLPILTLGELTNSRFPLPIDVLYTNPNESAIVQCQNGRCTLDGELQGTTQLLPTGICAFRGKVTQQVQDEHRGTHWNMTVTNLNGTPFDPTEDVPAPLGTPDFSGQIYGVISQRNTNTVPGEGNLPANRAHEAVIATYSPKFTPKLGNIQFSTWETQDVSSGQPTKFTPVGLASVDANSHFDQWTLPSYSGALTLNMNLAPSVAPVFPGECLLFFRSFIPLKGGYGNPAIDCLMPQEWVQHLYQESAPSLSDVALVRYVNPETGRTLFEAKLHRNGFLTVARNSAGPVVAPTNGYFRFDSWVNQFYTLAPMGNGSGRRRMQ

[2] = biological target: T2, norovirus GII.4 2006 VLPs (full-length capsid protein VP1, virus-like particles) (norovirus GII.4 (Saga4 2006)); assay: blocking ELISA: GII.4 VLPs pretreated with Nano-26, binding to coated PGM
T2 construct: mature; also called GII.4 VLPs

B1: Nano-26 (VHH)
VHH: QVQLQESGGGLVQPGGSLRLSCTAPRIIFFMYDVGWYRQAPEKQRELVAQINSDVSTKYADSVKGRFTISRDNAKRTVYLQMNDLKPEDAAVYYCNVRRASADYWGQGTQVTVSS
notes: also called Nanobody Nano-26; N26; not shown: His-tag implied by detection with an anti-His-tag antibody (pHEN6C vector); its
IC50 [1]: 6.6 µg/mL and 3.1 µg/mL and 2.6 µg/mL and 4.3 µg/mL | IC50 [2]: 2.4 µg/mL
